Laboratory results: the supplement of paper PMC12042874
± gives the uncertainty stated by the source.

Assay: amyloid nucleation score (Sup35N fusion, yeast selection) (log enrichment); library NNK3; higher = more nucleation; inactive = no reads after selection
In short: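 The nucleation score, computed with DiMSum, is the log enrichment of output over input reads, centred on the mode score of non-aggregating sequences. Sequences with under 100 input reads were dropped. Reads were generated by Illumina sequencing of plasmid inserts from psi-negative yeast with Sup35N fused to peptides of 20 random codons, induced with 100 μM copper sulfate for 24 hours and grown 7 days at 30°C on medium lacking adenine and uracil.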

| Substance | amyloid nucleation score |
| --- | --- |
| LSIDEWRFSSANSTALECHV | inactive |
| LRLQRDPCSNSLSVLSCIFC | 2.63 ± 0.06 |
| IFKKLSFL | inactive |
| FYYSVHFLF | inactive |
| DDVLYS | -0.19 ± 0.34 |
| AMVTVELSDNYFWNLHTVAS | inactive |
| AEGYFRSLSTIRGSLLDLSA | inactive |
| WLFNYRILCLSVMWFTKSIE | inactive |
| AWFTEVYFKPSFRKR | inactive |
| AYSDFRLTLSSYIVRANETC | inactive |
| PIFWR | inactive |
| FIIITKAFYRGTKMGGNTYS | -0.427 ± 0.73 |
| YMSFIYGSKR | 1.78 ± 0.07 |
| DDVTHISLKKNSDNLGYNSR | inactive |
| MSQKEGFSDTGLLLRRSTRS | inactive |
| LYVLSGVGICIRGDRLSC | 0.535 ± 0.36 |
| YWLGA | inactive |
| FVDLSGRSCRVPTEVWGFHS | inactive |
| HSVLGMCFSPKGVDVTTLVN | inactive |
| YKFIRFFSSMT | inactive |
| KLKFMPRLSHKWDRDQLRVH | inactive |
| CTYDSLRILAYRANQTNWFQ | -0.278 ± 0.47 |
| AYVSHINDMPAFGPKSNKPS | -0.19 ± 0.81 |
| HSQKTTKALRNPSNIQ | inactive |

| Substance | amyloid nucleation score |
| --- | --- |
| LESLPINNEFSMQSYTRIVI | inactive |
| KMTGLWLNVAVSDAFLEYDE | 1.46 ± 0.13 |
| GMMICMISWWVWNFACVDIR | inactive |
| CFNNRARP | inactive |
| RQVSPTVVCSIILSLPFDPC | 0.396 ± 0.22 |
| AWWYGLSMYIKKCILGSRFE | inactive |
| VYFRFYNL | 1.36 ± 0.073 |
| WNSLMAK | inactive |
| KCPRVDSA | inactive |
| NWLVSWFLFFPNSPLFCYHW | inactive |
| GSKDYQPSYIPWYNFACFKG | -0.594 ± 0.96 |
| SFTYTRQSGSNLEAVGTFPH | -0.373 ± 0.69 |
| DFLFTNFSNSDLRGILCQSF | inactive |
| SFNFSPCVYTCVRMCIWGYF | inactive |
| LRPNLQSDVPRRYTMCGTHA | inactive |
| YWVRNVGYRRNSSSCTWSRG | inactive |
| SYNFRDCYQCLRDKVDKICA | inactive |
| YCFNLFRSARRGDGCAMIGC | inactive |
| RPLTVKKY | -0.538 ± 1.4 |
| EGEVCSVCY | inactive |
| YVRIWSFMNYAVMVSITLIV | inactive |
| SKVGSWYDAT | -0.506 ± 1.1 |
| VKGIEVNRLMFEERISGCYV | inactive |
| PVNGAVYTKGLTSWLRFIVV | -0.178 ± 0.82 |

| Substance | amyloid nucleation score |
| --- | --- |
| FIWQMGNNPVVVAFSCRAGW | 2.56 ± 0.076 |
| ALWYENDCRWLDEVHRARTG | inactive |
| YHLLFIVKAYIGVILNFLRS | inactive |
| LGTGSLNHST | inactive |
| FEEYAIYPVAKGSVKMDAAL | inactive |
| FLGFDRVFYGRRISPSFVRT | inactive |
| CLHLWGVFKFFDVYWIMLMG | inactive |
| WYHGKWYLDLNYVVPVTQWK | inactive |
| QYKLFFYWESMV | inactive |
| FFIFRDVSTVDSLGPLYRLM | 1.14 ± 0.2 |
| LDFRSVTDVWSCYI | inactive |
| KNMWTGSFDVFRRWPISLKG | inactive |
| FSPYYLPLYVLVVRIKIQLG | inactive |
| FVTAAN | inactive |
| PQCESLMYCGD | inactive |
| WLRLSL | inactive |
| CRLSGEYFIDTDPEVFLALM | 0.397 ± 0.17 |
| FSHFMSSTYYCC | 1.73 ± 0.12 |
| RKHLRPQSMRVDSGETLRVL | inactive |
| MGTVVTMSMRLSNSVWGVGH | 1.28 ± 0.14 |
| YFLDV | inactive |
| NLYLSDNVCRVMKASVWVHA | inactive |
| LFDALYLEVTLGSSMVYVKN | inactive |
| AVASSRYNLEYLSRSLCVMS | inactive |

| Substance | amyloid nucleation score |
| --- | --- |
| GKVVVN | inactive |
| SWCWYMCSGLNIEIAKGLTR | inactive |
| GRLNVLRRRPVGRTKRCSKV | inactive |
| VSDIGCMGVDSLSPGYHNIV | inactive |
| AEYKNGTLRRRTRRVKSRRI | inactive |
| SIGCIHARCAYEEFDMVVIC | inactive |
| SSKHC | inactive |
| GGNGKAWHVGTVIMCRKLRV | 2.5 ± 0.078 |
| LCIPVDFVGGTIRLCVL | inactive |
| KNVTFTCHWTSKSLNMYYEE | 0.512 ± 0.29 |
| FPYLRRTMGVLIYQCVPIRG | inactive |
| IGGEYGFLSCYSIGVTTFYV | inactive |
| YQSGTLWCQCIWFKMRWRVH | inactive |
| YVSCK | inactive |
| SLIFFL | 1.35 ± 0.12 |
| FITVNRQNGK | inactive |
| TFRICADMCCTGVR | 1.45 ± 0.11 |
| MRSLGSAMWR | inactive |
| YVPIIWYASQHLVPSKSYSA | inactive |
| ALLFLIERALCPSCK | inactive |
| TMMACEANWYRSKNIEFVYA | inactive |
| EHLQRGSHLFSFSRSEI | inactive |
| NFPYLAVFLRGFSFSVIDC | inactive |
| HYSLSQDISDSNGLQLLFLL | 2.1 ± 0.075 |

| Substance | amyloid nucleation score |
| --- | --- |
| MNNCTDLYLLVNPRIRFGVM | inactive |
| DYNDCIKISIFLLYSPLIWC | 1.79 ± 0.1 |
| LSVCVIEHAWVFCRTPVQAF | inactive |
| CSRALYGCDRISRGLLEVCG | inactive |
| FYCRSGVGKCYGWVTKVMRE | inactive |
| QTSNMVAWCLSLFRAGRPTK | inactive |
| TTRIVSNCCMLIVL | 1.29 ± 0.12 |
| LGRRLAMSV | 0.692 ± 0.19 |
| PVYGSLCRFYGVRYGR | inactive |
| RSILDM | inactive |
| HRVDND | inactive |
| FIFSTLHNVLHGSNRVNSVW | inactive |
| VSSEGYIADTA | 0.292 ± 0.57 |
| SYPGQLRSPVSV | inactive |
| VFYIHIREVTSVVIILVWCS | inactive |
| VFYIYSRW | 1.69 ± 0.091 |
| TGKYRAVVLAC | inactive |
| ISFGYQVYA | inactive |
| PTELIACVAIYNVDYLYWIH | 2 ± 0.082 |
| RLHVRCNCDLSDGVPRAVCE | 0.599 ± 0.23 |
| RKLGLEYGITMSCASLLALR | inactive |
| GGVTYRQDLTRYLSG | inactive |
| AQALRSVPEVWGEFTRSS | inactive |
